Measurements: US20170044259A1 (published 2017)
Values belong to the binder of their own block, whether it stands above or below them.

Experiments:
[1] = biological target: T1, human PD-1-Fc (R and D systems, Minneapolis, Minn.) (human, UniProt Q15116 25-167); assay: inhibition ELISA; hPDL-2 Fc blockade
[2] = biological target: T1, human PD-1-Fc (R and D systems, …); assay: inhibition ELISA; hPDL-1 Fc blockade
[3] = biological target: T1, human PD-1-Fc (R and D systems, …); assay: ELISA; upper left panel
[4] = biological target: T1, human PD-1-Fc (R and D systems, …); assay: ELISA; lower right panel
[5] = biological target: T1, human PD-1-Fc (R and D systems, …); assay: ELISA; lower left panel
[6] = biological target: T1, human PD-1-Fc (R and D systems, …); assay: inhibition ELISA; hPDL-2 Fc blockade; remark: listed apart in the source
[7] = biological target: T1, human PD-1-Fc (R and D systems, …); assay: inhibition ELISA; hPDL-1 Fc blockade; remark: listed apart in the source
[8] = biological target: human PD-1-His (R & D systems, Minneapolis, Minn.) (human, UniProt Q15116 25-167); assay: BLI
human PD-1-His (R & D systems, Minneapolis, Minn.), sequence (Q15116 25-167): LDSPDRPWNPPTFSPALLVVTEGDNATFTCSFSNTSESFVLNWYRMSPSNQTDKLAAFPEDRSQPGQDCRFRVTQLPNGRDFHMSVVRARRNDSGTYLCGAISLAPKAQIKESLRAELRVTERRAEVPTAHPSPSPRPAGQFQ

[9] = biological target: T1, human PD-1-Fc (R and D systems, …); assay: ELISA; upper right panel

T1 sequence (Q15116 25-167): as above

- IC50 [1]: 1.04 nM
- IC50 [2]: 1.85 nM
B1: A1.0 (antibody, V domains shown)
VH: EVQLVESGGGLVQPGGSLRLSCAASGFTFSGYAMSWVRQAPGKGLEWVAYISNSGGNAHYADSVKGRFTISRDNSKNTLYLQMNSLRAEDTAVYYCTREDYGTSPFVYWGQGTLVTVSS
VL: DIQLTQSPSSLSASVGDRVTITCRASESVDNYGISFMNWFQQKPGKAPKLLIYAASNQGSGVPSRFSGSGSGTDFTLTISSMQPEDFATYYCQQSKDVPWTFGQGTKLEIKR

- Kd [3]: 5.66 nM
B3: PD-1 1.5 PD006 2001 (antibody)
heavy: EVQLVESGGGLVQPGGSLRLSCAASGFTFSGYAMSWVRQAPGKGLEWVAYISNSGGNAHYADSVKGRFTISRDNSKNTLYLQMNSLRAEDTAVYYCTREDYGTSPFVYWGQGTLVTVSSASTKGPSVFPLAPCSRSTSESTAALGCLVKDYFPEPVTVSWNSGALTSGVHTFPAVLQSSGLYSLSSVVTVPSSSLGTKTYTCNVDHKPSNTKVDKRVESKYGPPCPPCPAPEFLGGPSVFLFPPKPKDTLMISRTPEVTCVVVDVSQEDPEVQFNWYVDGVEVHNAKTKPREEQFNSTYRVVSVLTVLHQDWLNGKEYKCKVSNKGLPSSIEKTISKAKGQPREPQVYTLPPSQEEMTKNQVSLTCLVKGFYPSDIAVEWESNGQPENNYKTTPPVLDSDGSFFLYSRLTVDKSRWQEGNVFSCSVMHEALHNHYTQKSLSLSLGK
light: QGQSGQGAPRCYMFASYCKSQYGGGSSGGSISSGLLSGRSDNHGGGSDIQLTQSPSSLSASVGDRVTITCRASESVDAYGISFMNWFQQKPGKAPKLLIYAASNQGSGVPSRFSGSGSGTDFTLTISSMQPEDFATYYCQQSKDVPWTFGQGTKLEIKRTVAAPSVFIFPPSDEQLKSGTASVVCLLNNFYPREAKVQWKVDNALQSGNSQESVTEQDSKDSTYSLSSTLTLSKADYEKHKVYACEVTHQGLSSPVTKSFNRGEC

- Kd [4]: 4.97 nM
B4: PD-1 1.5 PD028 2001 (antibody)
heavy: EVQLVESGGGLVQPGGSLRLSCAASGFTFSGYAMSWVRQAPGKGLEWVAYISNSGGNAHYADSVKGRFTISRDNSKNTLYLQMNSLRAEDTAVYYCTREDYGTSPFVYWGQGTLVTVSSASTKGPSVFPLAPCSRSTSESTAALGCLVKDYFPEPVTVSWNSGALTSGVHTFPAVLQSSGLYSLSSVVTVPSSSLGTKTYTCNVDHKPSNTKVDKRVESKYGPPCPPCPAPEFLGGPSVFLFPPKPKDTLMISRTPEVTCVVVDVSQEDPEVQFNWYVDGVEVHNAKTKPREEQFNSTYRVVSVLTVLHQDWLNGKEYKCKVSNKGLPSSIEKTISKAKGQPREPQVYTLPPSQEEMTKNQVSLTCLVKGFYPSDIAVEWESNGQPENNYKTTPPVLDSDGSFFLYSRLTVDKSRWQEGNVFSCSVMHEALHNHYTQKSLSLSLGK
light: QGQSGQGFQPCLMFASSCFTSKGGGSSGGSISSGLLSGRSDNHGGGSDIQLTQSPSSLSASVGDRVTITCRASESVDAYGISFMNWFQQKPGKAPKLLIYAASNQGSGVPSRFSGSGSGTDFTLTISSMQPEDFATYYCQQSKDVPWTFGQGTKLEIKRTVAAPSVFIFPPSDEQLKSGTASVVCLLNNFYPREAKVQWKVDNALQSGNSQESVTEQDSKDSTYSLSSTLTLSKADYEKHKVYACEVTHQGLSSPVTKSFNRGEC

- Kd [5]: 5.45 nM
B5: PD-1 1.5 PD019 2001 (antibody)
heavy: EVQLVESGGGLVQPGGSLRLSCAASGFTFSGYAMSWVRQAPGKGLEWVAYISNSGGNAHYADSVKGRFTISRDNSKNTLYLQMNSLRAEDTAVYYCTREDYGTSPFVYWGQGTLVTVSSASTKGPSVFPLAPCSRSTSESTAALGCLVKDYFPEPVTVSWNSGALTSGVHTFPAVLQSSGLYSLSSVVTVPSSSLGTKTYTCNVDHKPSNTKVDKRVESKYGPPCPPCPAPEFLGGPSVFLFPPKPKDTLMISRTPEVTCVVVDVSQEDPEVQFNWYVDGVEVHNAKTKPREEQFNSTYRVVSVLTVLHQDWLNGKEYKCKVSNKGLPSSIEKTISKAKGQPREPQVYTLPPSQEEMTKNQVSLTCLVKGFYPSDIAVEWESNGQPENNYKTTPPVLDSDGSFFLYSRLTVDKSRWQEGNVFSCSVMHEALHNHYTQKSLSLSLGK
light: QGQSGQGPCDQNPYFYPYVCHAGGGSSGGSISSGLLSGRSDNHGGGSDIQLTQSPSSLSASVGDRVTITCRASESVDAYGISFMNWFQQKPGKAPKLLIYAASNQGSGVPSRFSGSGSGTDFTLTISSMQPEDFATYYCQQSKDVPWTFGQGTKLEIKRTVAAPSVFIFPPSDEQLKSGTASVVCLLNNFYPREAKVQWKVDNALQSGNSQESVTEQDSKDSTYSLSSTLTLSKADYEKHKVYACEVTHQGLSSPVTKSFNRGEC

- IC50 [6]: 1.83 nM
- IC50 [7]: 1.67 nM
- Kd [8]: 5.04 nM
B6: Bb2 (antibody, V domains shown)
VH: QVQLVQSGAEVKKPGASVKMSCKASGYTFTDYYMDWVRQAPGQGLEWIGYIYPKNGGSSYAQKFQGRATLTVDKSTSTAYMELSSLRSEDTAVYYCARKVVATDYWGQGTLLTVSS
VL: DIQMTQSPSSLSASVGDRVTMTCKSSQSLLYSSNQKNYLAWYQQKPGKAPKLLIFWASIRESGVPSRFSGSGSGTDFTLTISSVQPEDFATYYCQQSDSYPWTFGQGTKLEIKR

- IC50 [6]: 1.2 nM
- IC50 [7]: 2.2 nM
B7: Ba2 (antibody, V domains shown)
VH: QVQLVQSGAEVKKPGASVKMSCKASGYTFTDYYMDWVRQAPGQGLEWIGYIYPKNGGSSYAQKFQGRATLTVDTSTSTAYMELSSLRSEDTAVYYCARKVVATDYWGQGTLLTVSS
VL: DIQMTQSPSSLSASVGDRVTMTCKSSQSLLYSSNQKNYLAWYQQKPGKAPKLLIFWASIRESGVPSRFSGSGSGTDFTLTISSVQPEDFATYYCQQSDSYPWTFGQGTKLEIKR

- IC50 [6]: 1.95 nM
- IC50 [7]: 2.72 nM
- Kd [8]: 5.52 nM
B8: D4 (antibody, V domains shown)
VH: EVQLVESGGGLVQPGGSLRLSCAHSGFSFSSYDMSWVRQAPGKGLEWVATISGGGRYTYYADSVKGRFTISRDNSKNTLYLQMNSLRAEDTAVYYCASNYYGFDYWGQGTLLTVSS
VL: DIQMTQSPSSLSASVGDRVTITCKASQDVGTAVAWYQQKPGKAPKLLIYWASTRHTGVPSRFSGSGSGTDFTLTISSVQPEDFATYYCQQYSSYPWTFGQGTKLEIKR

- Kd [3]: 0.399 nM
B9: PD-1 1.5 PD009 2001 (antibody)
heavy: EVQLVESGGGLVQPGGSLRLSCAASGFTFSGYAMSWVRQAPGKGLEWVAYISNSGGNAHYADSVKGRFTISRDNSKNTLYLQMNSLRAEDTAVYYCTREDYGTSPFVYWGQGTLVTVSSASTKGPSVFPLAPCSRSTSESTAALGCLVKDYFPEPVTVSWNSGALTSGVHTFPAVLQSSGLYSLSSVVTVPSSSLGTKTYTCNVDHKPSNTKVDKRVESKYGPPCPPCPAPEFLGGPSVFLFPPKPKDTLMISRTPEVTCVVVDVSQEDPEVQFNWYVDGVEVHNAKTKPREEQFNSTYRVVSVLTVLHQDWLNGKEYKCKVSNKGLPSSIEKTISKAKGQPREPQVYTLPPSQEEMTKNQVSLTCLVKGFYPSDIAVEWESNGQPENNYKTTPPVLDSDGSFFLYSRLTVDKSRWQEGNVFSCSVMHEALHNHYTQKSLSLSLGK
light: QGQSGQGAPRTCYTYQCSSFYTGGGSSGGSISSGLLSGRSDNHGGGSDIQLTQSPSSLSASVGDRVTITCRASESVDAYGISFMNWFQQKPGKAPKLLIYAASNQGSGVPSRFSGSGSGTDFTLTISSMQPEDFATYYCQQSKDVPWTFGQGTKLEIKRTVAAPSVFIFPPSDEQLKSGTASVVCLLNNFYPREAKVQWKVDNALQSGNSQESVTEQDSKDSTYSLSSTLTLSKADYEKHKVYACEVTHQGLSSPVTKSFNRGEC

Continued, binder first:

B2: A1.2 (antibody, V domains shown)
VH: EVQLVESGGGLVQPGGSLRLSCAASGFTFSGYAMSWVRQAPGKGLEWVAYISNSGGNAHYADSVKGRFTISRDNSKNTLYLQMNSLRAEDTAVYYCTREDYGTSPFVYWGQGTLVTVSS
VL: DIQLTQSPSSLSASVGDRVTITCRASESVDQYGISFMNWFQQKPGKAPKLLIYAASNQGSGVPSRFSGSGSGTDFTLTISSMQPEDFATYYCQQSKDVPWTFGQGTKLEIKR
- IC50 [1]: 1.01 nM
- IC50 [2]: 1.55 nM

B10: PD-1 1.5 PD026 2001 (antibody)
heavy: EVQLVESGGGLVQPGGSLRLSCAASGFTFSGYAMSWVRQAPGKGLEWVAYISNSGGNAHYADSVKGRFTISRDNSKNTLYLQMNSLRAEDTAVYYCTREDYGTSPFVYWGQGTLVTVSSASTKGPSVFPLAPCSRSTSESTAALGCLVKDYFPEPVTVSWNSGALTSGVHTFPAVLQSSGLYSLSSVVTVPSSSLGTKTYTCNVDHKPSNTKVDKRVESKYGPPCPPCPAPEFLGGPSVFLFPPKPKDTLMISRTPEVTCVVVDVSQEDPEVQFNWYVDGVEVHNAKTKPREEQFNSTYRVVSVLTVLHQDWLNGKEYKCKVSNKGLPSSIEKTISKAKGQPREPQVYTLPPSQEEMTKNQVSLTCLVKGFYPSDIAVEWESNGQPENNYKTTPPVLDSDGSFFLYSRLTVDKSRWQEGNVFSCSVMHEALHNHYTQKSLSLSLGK
light: QGQSGQGGMCSAYAYSSKLCTIGGGSSGGSISSGLLSGRSDNHGGGSDIQLTQSPSSLSASVGDRVTITCRASESVDAYGISFMNWFQQKPGKAPKLLIYAASNQGSGVPSRFSGSGSGTDFTLTISSMQPEDFATYYCQQSKDVPWTFGQGTKLEIKRTVAAPSVFIFPPSDEQLKSGTASVVCLLNNFYPREAKVQWKVDNALQSGNSQESVTEQDSKDSTYSLSSTLTLSKADYEKHKVYACEVTHQGLSSPVTKSFNRGEC
- Kd [4]: 3.75 nM

B11: PD-1 1.5 PD025 2001 (antibody)
heavy: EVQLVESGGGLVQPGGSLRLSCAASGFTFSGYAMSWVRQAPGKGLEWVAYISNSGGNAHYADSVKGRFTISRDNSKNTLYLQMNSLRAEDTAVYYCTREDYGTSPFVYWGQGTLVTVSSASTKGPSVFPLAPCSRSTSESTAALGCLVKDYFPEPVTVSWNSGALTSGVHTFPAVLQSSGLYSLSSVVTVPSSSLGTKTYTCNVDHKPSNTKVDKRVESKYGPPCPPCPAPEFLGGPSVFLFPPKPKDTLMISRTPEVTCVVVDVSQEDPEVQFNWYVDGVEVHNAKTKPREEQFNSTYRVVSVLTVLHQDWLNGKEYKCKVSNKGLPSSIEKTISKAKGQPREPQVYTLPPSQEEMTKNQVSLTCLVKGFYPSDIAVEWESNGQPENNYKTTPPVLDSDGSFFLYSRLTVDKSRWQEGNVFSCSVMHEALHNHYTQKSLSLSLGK
light: QGQSGQGSRCSVYEVSSGLCDWGGGSSGGSISSGLLSGRSDNHGGGSDIQLTQSPSSLSASVGDRVTITCRASESVDAYGISFMNWFQQKPGKAPKLLIYAASNQGSGVPSRFSGSGSGTDFTLTISSMQPEDFATYYCQQSKDVPWTFGQGTKLEIKRTVAAPSVFIFPPSDEQLKSGTASVVCLLNNFYPREAKVQWKVDNALQSGNSQESVTEQDSKDSTYSLSSTLTLSKADYEKHKVYACEVTHQGLSSPVTKSFNRGEC
- Kd [5]: 5.22 nM

B12: PD-1 1.5 PD017 2001 (antibody)
heavy: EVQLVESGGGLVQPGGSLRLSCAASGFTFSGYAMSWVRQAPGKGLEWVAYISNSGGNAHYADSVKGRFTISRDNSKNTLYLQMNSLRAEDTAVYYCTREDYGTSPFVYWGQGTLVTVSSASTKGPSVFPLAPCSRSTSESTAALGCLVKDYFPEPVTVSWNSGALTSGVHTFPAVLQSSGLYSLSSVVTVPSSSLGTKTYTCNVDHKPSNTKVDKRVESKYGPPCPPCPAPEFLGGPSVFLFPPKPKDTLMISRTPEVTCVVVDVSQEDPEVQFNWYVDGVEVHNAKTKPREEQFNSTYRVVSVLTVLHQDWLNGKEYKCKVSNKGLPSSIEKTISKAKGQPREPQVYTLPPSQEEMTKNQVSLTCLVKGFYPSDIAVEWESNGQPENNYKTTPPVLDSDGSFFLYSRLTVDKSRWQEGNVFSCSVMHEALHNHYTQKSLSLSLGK
light: QGQSGQGTTCNLYQQSSMFCNAGGGSSGGSISSGLLSGRSDNHGGGSDIQLTQSPSSLSASVGDRVTITCRASESVDAYGISFMNWFQQKPGKAPKLLIYAASNQGSGVPSRFSGSGSGTDFTLTISSMQPEDFATYYCQQSKDVPWTFGQGTKLEIKRTVAAPSVFIFPPSDEQLKSGTASVVCLLNNFYPREAKVQWKVDNALQSGNSQESVTEQDSKDSTYSLSSTLTLSKADYEKHKVYACEVTHQGLSSPVTKSFNRGEC
- Kd [9]: 4.36 nM

B13: PD-1 1.5 PD012 2001 (antibody)
heavy: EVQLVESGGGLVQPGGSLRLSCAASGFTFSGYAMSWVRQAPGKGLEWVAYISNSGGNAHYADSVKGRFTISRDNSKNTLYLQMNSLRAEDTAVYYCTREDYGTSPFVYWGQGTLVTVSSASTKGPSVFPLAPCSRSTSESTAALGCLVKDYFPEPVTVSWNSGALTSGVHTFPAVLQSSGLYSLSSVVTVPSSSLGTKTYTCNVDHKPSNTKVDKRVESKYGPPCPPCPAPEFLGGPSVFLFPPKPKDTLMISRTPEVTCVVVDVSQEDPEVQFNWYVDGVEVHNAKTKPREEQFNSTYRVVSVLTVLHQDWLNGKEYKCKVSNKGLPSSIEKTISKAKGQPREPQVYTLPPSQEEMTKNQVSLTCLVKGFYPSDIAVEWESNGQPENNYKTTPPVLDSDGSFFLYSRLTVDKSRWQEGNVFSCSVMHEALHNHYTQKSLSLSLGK
light: QGQSGQGNWLDCQFYSECSVYGGGGSSGGSISSGLLSGRSDNHGGGSDIQLTQSPSSLSASVGDRVTITCRASESVDAYGISFMNWFQQKPGKAPKLLIYAASNQGSGVPSRFSGSGSGTDFTLTISSMQPEDFATYYCQQSKDVPWTFGQGTKLEIKRTVAAPSVFIFPPSDEQLKSGTASVVCLLNNFYPREAKVQWKVDNALQSGNSQESVTEQDSKDSTYSLSSTLTLSKADYEKHKVYACEVTHQGLSSPVTKSFNRGEC
- Kd [9]: 1.74 nM

B14: A1.5 PD34 2001 (antibody)
heavy: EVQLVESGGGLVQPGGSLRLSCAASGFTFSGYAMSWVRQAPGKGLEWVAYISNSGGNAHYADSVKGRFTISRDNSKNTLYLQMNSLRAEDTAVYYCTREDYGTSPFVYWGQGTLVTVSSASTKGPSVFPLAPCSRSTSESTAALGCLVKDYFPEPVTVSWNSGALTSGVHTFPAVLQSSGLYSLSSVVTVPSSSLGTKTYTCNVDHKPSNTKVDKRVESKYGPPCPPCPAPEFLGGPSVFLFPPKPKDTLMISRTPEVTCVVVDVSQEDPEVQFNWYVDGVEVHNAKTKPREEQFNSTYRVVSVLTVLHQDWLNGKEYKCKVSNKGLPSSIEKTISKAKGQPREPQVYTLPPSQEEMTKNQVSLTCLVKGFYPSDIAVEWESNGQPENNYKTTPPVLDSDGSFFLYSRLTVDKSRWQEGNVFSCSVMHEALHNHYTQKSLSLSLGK
light: QGQSGQGTSYCSIEHYPCNTHHGGGSSGGSISSGLLSGRSDNHGGGSDIQLTQSPSSLSASVGDRVTITCRASESVDAYGISFMNWFQQKPGKAPKLLIYAASNQGSGVPSRFSGSGSGTDFTLTISSMQPEDFATYYCQQSKDVPWTFGQGTKLEIKRTVAAPSVFIFPPSDEQLKSGTASVVCLLNNFYPREAKVQWKVDNALQSGNSQESVTEQDSKDSTYSLSSTLTLSKADYEKHKVYACEVTHQGLSSPVTKSFNRGEC
- Kd [3]: 9.37 nM
- Kd [4]: 8.12 nM
- Kd [5]: 8.4 nM
- Kd [9]: 7.3 nM
